Measured values published in the supplement of paper PMC10724198.

How the values were obtained:
Saccharomyces cerevisiae [1] = assay: protein stability index of tFT-peptide fusion in wild type (PSI (0-1 scale)); higher = more stable (slower turnover); conditions: genetic background: wild type
Method: (§1)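 MPS profiling in S. cerevisiae of two library types built from selected 12-aa C-degron peptides (IN1, IN2, LN1, LN3, VN2, R1-R5, W1-W3, Atg1 and Rpa12 C-termini): saturation mutagenesis libraries and C-terminal +1 capping libraries (13 aa). Each peptide is fused to the C-terminus of a sfGFP-mCherry timer, after a GGGS linker. Cells are FACS-sorted into 8 mCherry/sfGFP bins and sequenced. PSI runs from 0 (unstable) to 1 (stable), measured once in wild type and in the das1Δ or doa10Δ background.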

Saccharomyces cerevisiae [2] = assay: protein stability index of tFT-peptide fusion in deletion strain of DAS1 (PSI (0-1 scale)); higher = more stable (slower turnover)
Method: as §1
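Throughout, for protein stability index of tFT-peptide fusion in deletion strain of DAS1: PSI is a weighted mean of each variant's read distribution over the sorted stability bins, computed only for variants having over 10 reads in total.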
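Throughout, for protein stability index of tFT-peptide fusion in wild type: PSI derived as read-weighted mean over the 8 sorting bins, only variants exceeding 10 total reads kept, mCherry placed adjacent to the peptide and sfGFP distal.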

| Sequence | protein stability index (Saccharomyces cerevisiae [1]) | protein stability index (Saccharomyces cerevisiae [2]) |
| --- | --- | --- |
| LVVYLSCVACFN | 0.0281 | 0.076 |
| LVVYLSCVACGN | 0.0824 | 0.0998 |
| LVVYLSCVACIM | 0.0115 | 0.022 |
| LVVYLSCVACINE | 0.0198 | 0.0324 |
| LVVYLSCVACTN | 0.0171 | 0.0308 |
| LVVYLSCVACYN | 0.0154 | 0.0338 |
| LVVYLSCVAIIN | 0.0151 | 0.0381 |
| LVVYLSCVWCIN | 0.0553 | 0.263 |
| LVVYLSDVACIN | 0.458 | 0.495 |
| LVVYLSFVACIN | 0.0293 | 0.116 |
| MKHKKGQKQKIN | 0.0627 | 0.649 |
| MSLAASFWRVVG | 0.124 | 0.67 |
| NDKRNHLIKLLN | 0.128 | 0.609 |
| NSMRWTFRYWVN | 0.0828 | 0.598 |
| NTSCGYKFRTNN | 0.217 | 0.68 |
| PDDRNHLIKLLN | 0.157 | 0.594 |
| PDGRNHLIKLLN | 0.161 | 0.601 |
| PDKRFHLIKLLN | 0.113 | 0.672 |
| PDKRNHLCKLLN | 0.131 | 0.665 |
| PDKRNHLICLLN | 0.269 | 0.608 |
| PDKRNHLIDLLN | 0.591 | 0.624 |
| PDKRNHLIKKLN | 0.0795 | 0.581 |
| PDKRNHLIKLLQ | 0.205 | 0.605 |

| Sequence | protein stability index (Saccharomyces cerevisiae [1]) | protein stability index (Saccharomyces cerevisiae [2]) |
| --- | --- | --- |
| PDKRNHLIKSLN | 0.298 | 0.627 |
| PDKRNHLIKYLN | 0.0757 | 0.638 |
| PDKRNHLMKLLN | 0.089 | 0.592 |
| PDKRNHLWKLLN | 0.0949 | 0.601 |
| PDKRNHQIKLLN | 0.127 | 0.609 |
| PDKRNHYIKLLN | 0.0965 | 0.683 |
| PDKRNILIKLLN | 0.165 | 0.598 |
| PDKRNKLIKLLN | 0.115 | 0.671 |
| PDQRNHLIKLLN | 0.136 | 0.585 |
| PFLAASFWRVVG | 0.154 | 0.693 |
| PGLAASFWRVVG | 0.172 | 0.695 |
| PRWRVGLWRGAS | 0.364 | 0.707 |
| PSLAASFCRVVG | 0.618 | 0.645 |
| PSLAASFFRVVG | 0.609 | 0.654 |
| PSLAASFLRVVG | 0.641 | 0.642 |
| PSLAASFQRVVG | 0.692 | 0.672 |
| PSLAASFTRVVG | 0.647 | 0.648 |
| PSLAASFWIVVG | 0.418 | 0.421 |
| PSLAASFWMVVG | 0.525 | 0.637 |
| PSLAASFWRMVG | 0.151 | 0.646 |
| PSLAASFWRVIG | 0.151 | 0.677 |
| PSLAASFWRVRG | 0.666 | 0.683 |
| PSLAASFWRVTG | 0.142 | 0.687 |

| Sequence | protein stability index (Saccharomyces cerevisiae [1]) | protein stability index (Saccharomyces cerevisiae [2]) |
| --- | --- | --- |
| PSLAASFWRVVF | 0.699 | 0.701 |
| PSLAASFWRVVGD | 0.689 | 0.691 |
| PSLAASFWRVVGW | 0.714 | 0.699 |
| PSLAASFWRVVK | 0.661 | 0.688 |
| PSLAASRWRVVG | 0.156 | 0.682 |
| PSLAAWFWRVVG | 0.147 | 0.706 |
| PSLAAYFWRVVG | 0.142 | 0.677 |
| PSLANSFWRVVG | 0.269 | 0.711 |
| PSLATSFWRVVG | 0.158 | 0.687 |
| PSLTASFWRVVG | 0.156 | 0.693 |
| PSTAASFWRVVG | 0.135 | 0.701 |
| QLIQPLPVQFLN | 0.0736 | 0.616 |
| RLHQPLPVQFLN | 0.06 | 0.581 |
| RLIQDLPVQFLN | 0.14 | 0.588 |
| RLIQHLPVQFLN | 0.0489 | 0.636 |
| RLIQPGPVQFLN | 0.102 | 0.611 |
| RLIQPLPTQFLN | 0.215 | 0.638 |
| RLIQPLPVHFLN | 0.0347 | 0.587 |
| RLIQPLPVKFLN | 0.184 | 0.584 |
| RLIQPLPVQFLC | 0.0371 | 0.566 |
| RLIQPLPVQFLNG | 0.626 | 0.655 |
| RLIQPLPVQFLNW | 0.667 | 0.686 |
| RLIQPQPVQFLN | 0.0694 | 0.593 |

| Sequence | protein stability index (Saccharomyces cerevisiae [1]) | protein stability index (Saccharomyces cerevisiae [2]) |
| --- | --- | --- |
| RLIQPVPVQFLN | 0.123 | 0.583 |
| RLLQPLPVQFLN | 0.037 | 0.595 |
| RLNQPLPVQFLN | 0.0569 | 0.605 |
| RLSQPLPVQFLN | 0.0622 | 0.607 |
| RQIQPLPVQFLN | 0.124 | 0.604 |
| RRIQPLPVQFLN | 0.0626 | 0.601 |
| SKILRQKMNHQN | 0.153 | 0.677 |
| TSLAASFWRVVG | 0.125 | 0.688 |
| VGGAVGGWRLVG | 0.156 | 0.67 |
| VKHKKGQKQKIN | 0.105 | 0.716 |
| VKILRQKMNHQN | 0.174 | 0.67 |
| VLGAVGGWRLVG | 0.133 | 0.673 |
| VLIQPLPVQFLN | 0.0725 | 0.603 |
| VRGAEGGWRLVG | 0.242 | 0.686 |
| VRGALGGWRLVG | 0.171 | 0.669 |
| VRGATGGWRLVG | 0.188 | 0.682 |
| VRGAVGDWRLVG | 0.215 | 0.658 |
| VRGAVGEWRLVG | 0.182 | 0.696 |
| VRGAVGGFRLVG | 0.661 | 0.677 |
| VRGAVGGLRLVG | 0.628 | 0.681 |
